The labels stand for the following.
B1: DcR1-Ig receptor chimera (R&D Systems) (Fc fusion, UniProt O14798 26-221, looked up, not shown: a dimerising Fc or GST)
chain: ATTARQEEVPQQTVAPQQQRHSFKGEECPAGSHRSEHTGACNPCTEGVDYTNASNNEPSCFPCTVCKSDQKHKSSCTMTRDTVCQCKEGTFRNENSPEMCRKCSRCPSGEVQVSNCTSWDDIQCVEEFGANATVETPAAEETMNTSPGTPAPAAEETMNTSPGTPAPAAEETMTTSPGTPAPAAEETMTTSPGTPA
B2: DcR2-Ig receptor chimera (R&D Systems) (Fc fusion, UniProt Q9UBN6 56-211, looked up, not shown: a dimerising Fc or GST)
chain: ATIPRQDEVPQQTVAPQQQRRSLKEEECPAGSHRSEYTGACNPCTEGVDYTIASNNLPSCLLCTVCKSGQTNKSSCTTTRDTVCQCEKGSFQDKNSPEMCRTCRTGCPRGMVKVSNCTPRSDIKCKNESAASSTGKTPAAEETVTTILGMLASPYH
B3: TRAIL variant D269H (114-281) (ligand)
chain: MVRERGPQRVAAHITGTRGRSNTLSSPNSKNEKALGRKINSWESSRSGHSFLSNLHLRNGELVIHEKGFYYIYSQTYFRFQEEIKENTKNDKQMVQYIYKYTSYPDPILLMKSARNSCWSKDAEYGLYSIYQGGIFELKENDRIFVSVTNEHLIDMHHEASFFGAFLVG
notes: All mutants are said to be of the length 114-281; also called rhTRAIL carrying mutation D269H; DR5-selective variant
B4: TRAIL variant D269HE195R (114-281) (ligand)
chain: MVRERGPQRVAAHITGTRGRSNTLSSPNSKNEKALGRKINSWESSRSGHSFLSNLHLRNGELVIHEKGFYYIYSQTYFRFQERIKENTKNDKQMVQYIYKYTSYPDPILLMKSARNSCWSKDAEYGLYSIYQGGIFELKENDRIFVSVTNEHLIDMHHEASFFGAFLVG
notes: All mutants are said to be of the length 114-281; also called TRAIL-DR5; DE

The target in assay [1] is B4. Nature of the assay: cell-based or functional assay.
Assay [2] deals with B3. Nature of the assay: cell-based or functional assay.
The target in assay [3] is wild-type TRAIL (recombinant human soluble TRAIL, amino acids 114-281) (human, UniProt P50591 114-281). Nature of the assay: cell-based or functional assay.
wild-type TRAIL (recombinant human soluble TRAIL, amino acids 114-281), sequence (P50591 114-281 limits assumed): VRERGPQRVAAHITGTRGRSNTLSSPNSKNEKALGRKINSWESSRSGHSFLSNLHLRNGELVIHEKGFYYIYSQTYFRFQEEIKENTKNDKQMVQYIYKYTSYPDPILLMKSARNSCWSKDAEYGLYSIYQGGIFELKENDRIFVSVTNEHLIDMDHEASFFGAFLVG
Assay [4] deals with B1. Nature of the assay: SPR (Biacore 3000, 37 °C), DcR1-Ig captured on protein A, pre-steady state.
For assay [5], the target named is B2. Nature of the assay: SPR (Biacore), DcR2-Ig captured on a protein A-modified CM5 chip, response in RU against ligand concentration (pre-steady state). A general note: SPR reads the build-up and loss of mass on a sensor chip optically.
The target in the next assay is T1, DR5-Ig (UniProt O14763 54-182).
T1 construct: also called sDR5; soluble recombinant DR5-Ig; not shown: Ig (Fc) part
The assay can be described thus: not stated there (SPR by the context of paragraph 339).

Assay [6] has as its target death receptor 5 (DR5) on the cell surface (human, UniProt O14763 56-440). Nature of the assay: cell-based or functional assay.

Turning to B1, the “block of ligand-induced apoptosis of Colo205 cells (Annexin V) after pre-incubation of the ligand with soluble receptor” value in assay [1] was over 2 µg/mL; in assay [2] it was over 2 µg/mL; in assay [3], 0.5 µg/mL.
With B2, the “block of ligand-induced apoptosis of Colo205 cells (Annexin V) after pre-incubation of the ligand with soluble receptor” value in assay [2] amounted to 2 fold.
On to B3, for which the “fold reduction of binding compared to wtTRAIL” value in assay [4] is about 20 fold. In addition, the binding result in assay [5] is listed as “binds”.
As to B4, the “fold increase in kon compared to wtTRAIL” value with DR5-Ig was under 5 fold. The “rate of receptor activation relative to wtTRAIL” value in assay [6] is 17 fold. For the same molecule, the “fold reduction of binding compared to wtTRAIL” value in assay [4] is about 20 fold. Also, the binding result in assay [5] is recorded as “binds”.

These data come from patent US20110165265A1 (FUNDACI GEN MICA CRG, published 2011).
